Results as given in article PMC3336217, “^111In-Labeled Cystine-Knot Peptides Based on the Agouti-Related Protein for Targeting Tumor Angiogenesis” (Journal of Biomedicine and Biotechnology, 2012).
Positions of bridges follow the written chain, without caps; N, C: chain ends. Residues, ends and D or L forms follow the SMILES beside them. *: point of attachment. DOTA = O=C(O)CN1CCN(CC(=O)O)CCN(CC(=O)*)CCN(CC(=O)O)CC1

Legend:
in vivo = settings: female, athymic nu/nu, mouse, iv, total radioactivity
Protocol: All animal studies were carried out in compliance with federal and local institutional rules for animal experimentation. Approximately, 10^7 U87MG cells were suspended in PBS and subcutaneously implanted in the left shoulders of female athymic nu/nu mice. Tumors were allowed to grow to a size of 0.5 cm (2-3 weeks) before imaging experiments were performed. For biodistribution studies, U87MG tumor-bearing mice (n = 3 for each group) were injected with ^111In-DOTA-AgRP-7C (0.259–0.37 MBq, […]) or ^111In-DOTA-AgRP-6E (0.296–0.444 MBq, 8–12 μCi) via the tail vein and sacrificed at different time points (0.5, 2, 24, and 48 h) after injection (p.i.). Tumor and normal tissues of interest were removed and weighed, and their radioactivity was measured with a γ-counter. Radioactivity uptake was expressed as the percent injected dose per gram of tissue (%ID/g). To test the in vivo αvβ3 integrin targeting specificity of the probe, U87MG tumor-bearing mice (n = 3 for each group) were injected via the tail vein with a mixture of ^111In-DOTA-AgRP-7C (0.259–0.37 MBq, 7–10 μCi) and 330 μg of c(RGDyK). The mice were sacrificed at 2 h p.i. and the biodistribution of the radiolabeled peptide was measured as above.
Quantitative data were expressed as mean ± SD. Means were compared using the Student t-test. A 95% confidence level was chosen to determine the significance between groups, with P values of less than 0.05 indicating significant differences.

in vitro = in vitro ADME; settings: mouse, serum
Protocol: Radiolabeled AgRP* peptides were incubated in 0.01 M PBS (pH 7.4) at 37°C for 24 h and monitored for degradation by HPLC. Stability was also tested by incubating 0.74 MBq (20 μCi) ^111In-DOTA-AgRP-7C or ^111In-DOTA-AgRP-6E in 400 μL of mouse serum at 37°C for 2 h. Afterward, the mixture was re-suspended in 0.5 mL of DMF containing 5 μL of Triton X-100 and centrifuged at 16,000 g for 2 min. The supernatant, which contained >95% of the starting radioactivity, was filtered using a 10 K NanoSep device (Pall Corporation, East Hills, NY, USA). Greater than 99% of the radioactive material passed through this filter. The samples were analyzed by radio-HPLC, and the percentage of intact peptide was determined by quantifying peaks corresponding to the intact peptide and to the degradation products.
Figure 1 Stability analysis of ^111In-DOTA-AgRP-7C (a) and (b), and ^111In-DOTA-AgRP-6E (c) and (d) in PBS and mouse serum. The two radiopeptides were incubated with PBS for 24 h at […], and mouse serum for 2 h at 37°C.

**Q.** With `CC(C)C[C@@H]1NC(=O)[C@@H]2CSSC[C@@H]3NC(=O)[C@H]([C@@H](C)O)NC(=O)[C@H](C)NC(=O)[C@H](C)NC(=O)[C@@H]4CCCN4C(=O)[C@H](CC(=O)O)NC(=O)[C@H](CSSC[C@H](NC(=O)CNC(=O)CN4CCN(CC(=O)O)CCN(CC(=O)O)CCN(CC(=O)O)CC4)C(=O)N[C@@H](C(C)C)C(=O)N[C@@H](CCCNC(=N)N)C(=O)N[C@@H](CC(C)C)C(=O)N[C@@H](Cc4c[nH]cn4)C(=O)N[C@@H](CCC(=O)O)C(=O)N[C@@H](CO)C(=O)N2)NC(=O)[C@H](CSSC[C@@H](C(=O)N[C@@H](CCCNC(=N)N)C(=O)O)NC(=O)[C@H](Cc2ccc(O)cc2)NC(=O)[C@@H]2CSSC[C@H](NC(=O)[C@H](Cc4ccc(O)cc4)NC3=O)C(=O)N[C@@H](C(C)C)C(=O)N[C@@H](CCC(=O)O)C(=O)N[C@@H](CCCNC(=N)N)C(=O)NCC(=O)N[C@@H](CC(=O)O)C(=O)NCC(=O)N[C@@H](CC(N)=O)C(=O)N[C@@H](CCCNC(=N)N)C(=O)N[C@@H](CCCNC(=N)N)C(=O)N2)NC(=O)[C@@H]2CCCN2C(=O)[C@H](C(C)C)NC(=O)[C@H](CCC(N)=O)NC(=O)[C@H](CCC(N)=O)NC(=O)CNC1=O` [111In-DOTA-AgRP-6E, metal not drawn] ({DOTA}-GCVRLHESCLGQQVPCCDPAATCYCVERGDGNRRCYCR-OH; disulfide 2-17, 9-23, 16-37, 25-35) as the compound, how does the tissue uptake at 0.5 h (in vivo; Blood uptake) read?
**A.** The tissue uptake at 0.5 h was 1.27 ± 0.53 %ID/g.

**Q.** What about the tissue uptake at 2 h (in vivo; Blood uptake) of the same compound?
**A.** Its tissue uptake at 2 h is 0.06 ± 0.05 %ID/g.

**Q.** What about the tissue uptake at 24 h (in vivo; Blood uptake) of the same compound?
**A.** The tissue uptake at 24 h was 0.01 %ID/g.

**Q.** And the tissue uptake at 0.5 h (in vivo; Bone uptake)?
**A.** Its tissue uptake at 0.5 h is 1.18 ± 0.15 %ID/g.

**Q.** And the tissue uptake at 2 h (in vivo; Bone uptake)?
**A.** Its tissue uptake at 2 h is 0.56 ± 0.1 %ID/g.

**Q.** And the tissue uptake at 24 h (in vivo; Bone uptake)?
**A.** The tissue uptake at 24 h was 0.36 ± 0.04 %ID/g.

**Q.** What about the tissue uptake at 0.5 h (in vivo; Brain uptake) of the same compound?
**A.** The tissue uptake at 0.5 h was 0.06 ± 0.01 %ID/g.

**Q.** And the tissue uptake at 2 h (in vivo; Brain uptake)?
**A.** Its tissue uptake at 2 h is 0.02 ± 0.01 %ID/g.

**Q.** And the tissue uptake at 24 h (in vivo; Brain uptake)?
**A.** The tissue uptake at 24 h was 0.02 ± 0.01 %ID/g.

**Q.** And the tissue uptake at 0.5 h (in vivo; Heart uptake)?
**A.** The tissue uptake at 0.5 h was 0.8 ± 0.24 %ID/g.

**Q.** What about the tissue uptake at 2 h (in vivo; Heart uptake) of the same compound?
**A.** The tissue uptake at 2 h was 0.18 ± 0.06 %ID/g.

**Q.** And the tissue uptake at 24 h (in vivo; Heart uptake)?
**A.** The tissue uptake at 24 h was 0.12 ± 0.02 %ID/g.

**Q.** And the tissue uptake at 0.5 h (in vivo; Intestine uptake)?
**A.** Its tissue uptake at 0.5 h is 2.04 ± 0.54 %ID/g.

**Q.** What about the tissue uptake at 2 h (in vivo; Intestine uptake) of the same compound?
**A.** The tissue uptake at 2 h was 1.13 ± 0.14 %ID/g.

**Q.** And the tissue uptake at 24 h (in vivo; Intestine uptake)?
**A.** The tissue uptake at 24 h was 0.93 ± 0.04 %ID/g.

**Q.** And the tissue uptake at 0.5 h (in vivo; Kidneys uptake)?
**A.** Its tissue uptake at 0.5 h is 15.4 ± 3.19 %ID/g.

**Q.** And the tissue uptake at 2 h (in vivo; Kidneys uptake)?
**A.** Its tissue uptake at 2 h is 14.7 ± 1.98 %ID/g.

**Q.** And the tissue uptake at 24 h (in vivo; Kidneys uptake)?
**A.** Its tissue uptake at 24 h is 6.87 ± 1.19 %ID/g.

**Q.** What about the tissue uptake at 0.5 h (in vivo; Liver uptake) of the same compound?
**A.** The tissue uptake at 0.5 h was 0.87 ± 0.2 %ID/g.

**Q.** What about the tissue uptake at 2 h (in vivo; Liver uptake) of the same compound?
**A.** Its tissue uptake at 2 h is 0.52 ± 0.01 %ID/g.

**Q.** And the tissue uptake at 24 h (in vivo; Liver uptake)?
**A.** The tissue uptake at 24 h was 0.48 ± 0.02 %ID/g.

**Q.** What about the tissue uptake at 0.5 h (in vivo; Lung uptake) of the same compound?
**A.** The tissue uptake at 0.5 h was 1.86 ± 0.56 %ID/g.

**Q.** And the tissue uptake at 2 h (in vivo; Lung uptake)?
**A.** The tissue uptake at 2 h was 0.54 ± 0.12 %ID/g.

**Q.** And the tissue uptake at 24 h (in vivo; Lung uptake)?
**A.** The tissue uptake at 24 h was 0.27 ± 0.02 %ID/g.

**Q.** And the tissue uptake at 0.5 h (in vivo; Muscle uptake)?
**A.** The tissue uptake at 0.5 h was 0.64 ± 0.09 %ID/g.

**Q.** What about the tissue uptake at 2 h (in vivo; Muscle uptake) of the same compound?
**A.** Its tissue uptake at 2 h is 0.15 ± 0.07 %ID/g.

**Q.** And the tissue uptake at 24 h (in vivo; Muscle uptake)?
**A.** The tissue uptake at 24 h was 0.07 ± 0.01 %ID/g.

**Q.** What about the tissue uptake at 0.5 h (in vivo; Pancreas uptake) of the same compound?
**A.** The tissue uptake at 0.5 h was 0.57 ± 0.23 %ID/g.

**Q.** And the tissue uptake at 2 h (in vivo; Pancreas uptake)?
**A.** The tissue uptake at 2 h was 0.2 ± 0.06 %ID/g.

**Q.** What about the tissue uptake at 24 h (in vivo; Pancreas uptake) of the same compound?
**A.** Its tissue uptake at 24 h is 0.14 ± 0.01 %ID/g.

**Q.** What about the tissue uptake at 0.5 h (in vivo; Spleen uptake) of the same compound?
**A.** Its tissue uptake at 0.5 h is 1.36 ± 0.26 %ID/g.

**Q.** What about the tissue uptake at 2 h (in vivo; Spleen uptake) of the same compound?
**A.** The tissue uptake at 2 h was 0.83 ± 0.05 %ID/g.

**Q.** And the tissue uptake at 24 h (in vivo; Spleen uptake)?
**A.** The tissue uptake at 24 h was 0.65 ± 0.06 %ID/g.

**Q.** What about the tissue uptake at 0.5 h (in vivo; Stomach uptake) of the same compound?
**A.** The tissue uptake at 0.5 h was 2.02 ± 0.47 %ID/g.

**Q.** And the tissue uptake at 2 h (in vivo; Stomach uptake)?
**A.** The tissue uptake at 2 h was 0.87 ± 0.14 %ID/g.

**Q.** What about the tissue uptake at 24 h (in vivo; Stomach uptake) of the same compound?
**A.** Its tissue uptake at 24 h is 0.53 ± 0.02 %ID/g.

**Q.** And the tissue uptake at 0.5 h (in vivo; Tumor uptake)?
**A.** Its tissue uptake at 0.5 h is 1.76 ± 0.34 %ID/g.

**Q.** What about the tissue uptake at 2 h (in vivo; Tumor uptake) of the same compound?
**A.** The tissue uptake at 2 h was 1.21 ± 0.21 %ID/g.

**Q.** What about the tissue uptake at 24 h (in vivo; Tumor uptake) of the same compound?
**A.** The tissue uptake at 24 h was 0.89 ± 0.06 %ID/g.

**Q.** And the tissue to tissue ratio at 0.5 h (in vivo; Tumor-to-blood ratio)?
**A.** The tissue to tissue ratio at 0.5 h was 1.71 ± 1.21.

**Q.** What about the tissue to tissue ratio at 2 h (in vivo; Tumor-to-blood ratio) of the same compound?
**A.** The tissue to tissue ratio at 2 h was 33 ± 23.3.

**Q.** What about the tissue to tissue ratio at 24 h (in vivo; Tumor-to-blood ratio) of the same compound?
**A.** The tissue to tissue ratio at 24 h was 142 ± 3.39.

**Q.** What about the tissue to tissue ratio at 0.5 h (in vivo; Tumor-to-muscle ratio) of the same compound?
**A.** Its tissue to tissue ratio at 0.5 h is 2.75 ± 0.28.

**Q.** What about the tissue to tissue ratio at 2 h (in vivo; Tumor-to-muscle ratio) of the same compound?
**A.** Its tissue to tissue ratio at 2 h is 9.2 ± 3.88.

**Q.** And the tissue to tissue ratio at 24 h (in vivo; Tumor-to-muscle ratio)?
**A.** Its tissue to tissue ratio at 24 h is 13.1 ± 1.94.

**Q.** What about the remaining at 2 h, 1.85 MBq/mL (in vitro) of the same compound?
**A.** Its remaining at 2 h, 1.85 MBq/mL is greater than 95%.
